Paper PMC2684960

Target: T1, phospho-IRF3 (S386), endogenous (human (endogenous in SALE)), Q14653
T1 chain: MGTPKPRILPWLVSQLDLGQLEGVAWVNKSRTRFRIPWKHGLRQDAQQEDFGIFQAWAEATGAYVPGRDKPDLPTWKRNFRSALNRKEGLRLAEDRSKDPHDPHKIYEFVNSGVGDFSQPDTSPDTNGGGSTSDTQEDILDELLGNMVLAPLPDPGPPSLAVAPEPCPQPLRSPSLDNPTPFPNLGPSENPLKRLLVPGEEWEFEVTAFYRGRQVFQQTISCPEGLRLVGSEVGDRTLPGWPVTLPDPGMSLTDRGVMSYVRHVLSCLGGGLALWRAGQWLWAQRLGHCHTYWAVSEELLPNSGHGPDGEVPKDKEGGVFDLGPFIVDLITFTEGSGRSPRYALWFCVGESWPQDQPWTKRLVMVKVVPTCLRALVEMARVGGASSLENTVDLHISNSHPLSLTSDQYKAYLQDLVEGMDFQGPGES
Assay: native gel or EMSA
Conditions: remark: other sources report otherwise

stoichiometry N: 2
B1: phospho-IRF3 (S386), endogenous, Q14653 1-427 (natural protein)
chain: T1 chain
modifications: here or on the partner: phosphoserine at 386; phosphoserine at 386
